The subject of data set [1] is HfqH6 (Ec-HfqHis6) (Escherichia coli). In words: MST. The conditions noted are these: Hill coefficient 4.0; concentration calculated with 1 kb average length; MST: 50 mM Tris-HCl pH 7.6, 50 mM NH4Cl, 1 mM EDTA, 0.1% Triton X100, 5% glycerol; room temperature; 100 nM labelled HfqH6. Total E. coli RNA (EC50 3.2e-7 M …).
Data set [2] has as its target T1, Ec-HfqHis6 (purified) (E. coli, UniProt P0A6X3 1-102).
T1 construct: In MST labelled with a fluorescent dye (Protein Labeling Kit RED-NHS); also called HfqH6; purified Hfq
The experiment in a line: MST; as the MST without RNA, but in the presence of E. coli total RNA; apparent affinity. The conditions noted are these: both partners purified.

Data set [3] concerns the target T1, Ec-HfqHis6 (purified). The experiment in a line: MST; one partner labelled (RED-NHS) and constant (HfqH6 100 nM), the other titrated; standard buffer (50 mM Tris-HCl pH7.6, 50 mM NH4Cl, 1 mM EDTA, 0.1% Triton X100, 5% glycerol); room temperature; Hill model; without RNA. The note with it: both partners purified.

T1 sequence (P0A6X3 whole entry): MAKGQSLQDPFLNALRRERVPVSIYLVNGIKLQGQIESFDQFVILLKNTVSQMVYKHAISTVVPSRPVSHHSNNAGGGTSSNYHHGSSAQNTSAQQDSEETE

poly(A): in data set [1], the K half was 600 nM.

B1: Poly(A)polymerase, PAP (purified) (natural protein, E. coli, UniProt P0ABF1 11-465, looked up)
chain: KVLSREESEAEQAVARPQVTVIPREQHAISRKDISENALKVMYRLNKAGYEAWLVGGGVRDLLLGKKPKDFDVTTNATPEQVRKLFRNCRLVGRRFRLAHVMFGPEIIEVATFRGHHEGNVSDRTTSQRGQNGMLLRDNIFGSIEEDAQRRDFTINSLYYSVADFTVRDYVGGMKDLKDGVIRLIGNPETRYREDPVRMLRAVRFAAKLGMRISPETAEPIPRLATLLNDIPPARLFEESLKLLQAGYGYETYKLLCEYHLFQPLFPTITRYFTENGDSPMERIIEQVLKNTDTRIHNDMRVNPAFLFAAMFWYPLLETAQKIAQESGLTYHDAFALAMNDVLDEACRSLAIPKRLTTLTRDIWQLQLRMSRRQGKRAWKLLEHPKFRAAYDLLALRAEVERNAELQRLVKWWGEFQVSAPPDQKGMLNELDEEPSPRRRTRRPRKRAPRREGTA
notes: Poly(A) polymerase I, E. coli
Turning to B1, the “fold decrease of the apparent affinity in the presence of total RNA” value with Ec-HfqHis6 (purified) [2] is approximately 10 fold. In the data set with Ec-HfqHis6 (purified) [3], the EC50 was less than 10 µM.

The record behind these values is PMC6773851, “Identification of protein-protein and ribonucleoprotein complexes containing Hfq” (Scientific Reports, 2019).
